How the values were obtained:
Assay type in all cases: cell-based, human
DHFR mRNA = assay: real time qRT-PCR of DHFR mRNA after transfection; conditions: HCT-116 (wt-p53), 24 h after transfection, GAPDH normalized
Description: The analysis was performed as follows. Total RNA, including miRNA, was isolated from cell lines by using TRIzol reagent (Invitrogen) according to the manufacturer's instructions at 24 h after transfection. cDNA was synthesized with the High Capacity cDNA synthesis kit (Applied Biosystems) using 2 μg of total RNA as the template and random primers. Real-time qRT-PCR analysis was done on the experimental mRNAs. The PCR primers and probes for DHFR, and the internal control gene GAPDH were purchased from Applied Biosystems. qRT-PCR was done on an ABI 7500HT instrument under the following conditions: 50° C., 2 min of reverse transcription; 95° C., 10 min; 95° C., 15 sec; 60° C., 1 min. The reaction was done for up to 40 cycles (n=3). GAPDH was used as an internal standard for normalization.

HCT-116 (wt-p53) cells [1] = assay: cell cycle analysis by flow cytometry; set-up: cell cycle profile G1/S / cell cycle profile G2/S: unit not given here
Description: To determine whether the miR-192's impact on cellular proliferation was related to cell cycle control, the effect on cell cycle control was analyzed by flow cytometry using HCT-116 (wt-p53) (FIG. 5A) and HCT-116 (null-p53) (FIG. 5B) cells transfected with non-specific control miR (left line graph) or miR-192 (right line graph). This experiment was performed as follows. The HCT-116 (wt-p53) and HCT-116 (null-p53) cells lines as described above (see Example 3) were transfected with miR-192 precursor and the non-specific control miRNA described as above (see Examples 1 and 2). At 36 hours after transfection, the cells were harvested and resuspended at 0.5-1×10^5 cells/ml in modified Krishan buffer containing 0.1% sodium citrate and 0.3% NP-40 and kept at 4° C. Before being analyzed by flow cytometry, cells were treated with 0.02 mg/ml RNase H and stained with 0.05 mg/ml propidium iodide (Sigma).
miR-215 induces G2-arrest in HCT-116 (wt-p53) and U-2 OS cells. To investigate the mechanism by which miR-215 suppressed cell proliferation in HCT-116 (wt-p53) and U-2 OS cells, the impact of miR-215 on cell cycle control was analyzed by flow cytometry at 36 h after transfection. HCT-116 (wt-p53), HCT-116 (null-p53), U-2 OS and MG63 cells were transfected with miR-215 precursor and the non-specific control miRNA described as above. At 36 h after transfection, cells were harvested and resuspended at 0.5-1 10^5 cells/ml in modified Krishan buffer containing 0.1% sodium citrate and 0.3% NP-40 and kept at 4° C. Before analysis by flow cytometry, cells were treated with 0.02 mg/ml RNase H and stained with 0.05 mg/ml propidium iodide (Sigma).

E2F3 = assay: Western immunoblot of E2F3, HCT-116 (wt-p53)
Description: The expression of miR-192 on the expression of E2F3 and Rb in HCT-116 (wt-p53) cells was also analyzed. In these experiments, HVT-116 (wt-p53) cells, as described above (see Example 3) were transfected with non-specific miR (FIG. 7, lane 2), DHFR siRNA (FIG. 7, lane 3) or miR-192 (FIG. 7, lane 4) according to the procedure described above (see Examples 1 and 2). One HCT-116 (wt-p53) sample was not transfected, and used as a negative control (FIG. 7, lane 1). Western immunoblot analysis was performed according to the procedure described above (see Example 5), except that rabbit anti-E2F-3 polyclonal antibody (1:1000, C-18) (Santa Cruz Biotechnology) was used.

HCT-116 (null-p53) cells = assay: WST-1 cellular proliferation after miR-192 transfection; conditions: n=3
Description: (§1) miR-192 inhibits cell proliferation of HCT-116 (wt-p53), RKO (wt-p53) and HT-29 (mut-p53) colon cancer cell lines. To assess the functional significance of miR-192, the impact of miR-192 on cellular proliferation was evaluated using HCT-116 (wt-p53), HCT-116 (null-p53), RKO (wt-p53) and HT-29 (mut-p53) colon cancer cell lines. The human colon cancer cell lines HCT-116 (wt-p53) and HCT-116 (null-p53) were provided by Prof Bert Vogelstein (The Johns Hopkins University) and were maintained in McCoy's 5A medium (Life Technologies). The other two human colon cancer cell lines, RKO (wt-p53) and HT-29 (mut-p53), were obtained from the American Type Culture Collection. The HT-29 (mut-p53) cell line has a missense mutation in codon 273 of p53 resulting in an Argto-His substitution. RKO (wt-p53) and HT-29 (mut-p53) cells were maintained in Eagle's MEM and Iscove's Modified Dulbecco's Medium at the American Type Culture Collection, respectively. All media were supplemented with 10% dialyzed fetal bovine serum (Hyclone Laboratories). All cell lines were grown at 37° C. in a humidified incubator with 5% CO2. The cell lines were transfected as described above (see Examples 1 and 2).
(§2) The cellular proliferation was evaluated as follows. HCT-116 (wt-p53) (FIG. 4A), HCT-116 (null-p53) (FIG. 4C), RKO (wt-p53) (FIG. 4B), and HT-29 cells (FIG. 4D) were plated in 96-well plates in triplicate at 1×10^3 cells per well after transfection with miR-192 precursor (illustrated as—Δ—) or non-specific control miRNA (illustrated as—□—). Cells were cultured for 24, 48, 72, or 96 hours. The absorbance at 450 and 630 nm was measured after incubation with 10 μl of WST-1 for 2 hours. A non-specific miR was used as a negative control.

RKO (wt-p53) cells = assay: as above; conditions: n=3
Description: as §1, §2

HT-29 (mut-p53) cells = assay: as above; conditions: HT-29, n=3
Description: as §1, §2

HCT-116 (wt-p53) cells [2] = assay: as above; conditions: overexpression vs non-specific miR, n=3
Description: as §1, §2

B1: miR-192: microRNA miR-192 (SEQ ID NO:1), transfected into cells as miR-192 precursor (Ambion) (nucleic acid)
chain: GCCGAGACCGAGUGCACAGGGCUCUGACCUAUGAAUUGACAGCCAGUGCUCUCGUCUCCCCUCUGGCUGCCAAUUCCAUAGGUCACAGGUAUGUUCGCCUCAAUGCCAGC
modifications: delivered as precursor, further chemistry not given here
- DHFR mRNA expression (DHFR mRNA): no reduction
- cell cycle profile G1 (HCT-116 (wt-p53) cells [1]; 36 hours after transfection): 40.84%
- cell cycle profile G1/S (HCT-116 (wt-p53) cells [1]; 36 hours after transfection): 2.83
- cell cycle profile G2 (HCT-116 (wt-p53) cells [1]; 36 hours after transfection): 44.71%
- cell cycle profile G2/S (HCT-116 (wt-p53) cells [1]; 36 hours after transfection): 3.09
- cell cycle profile S (HCT-116 (wt-p53) cells [1]; 36 hours after transfection): 14.45%
- G1 arrest (HCT-116 (wt-p53) cells [1]; vs non-specific miR): > 2 fold
- G2 arrest (HCT-116 (wt-p53) cells [1]; vs non-specific miR): > 3 fold
- expression of E2F3 (E2F3): decreased expression
- suppression of cellular proliferation (HCT-116 (null-p53) cells): 15%
- suppression of cellular proliferation (RKO (wt-p53) cells): 48%
- suppression of cellular proliferation (HT-29 (mut-p53) cells): 24%
- suppression of cellular proliferation (HCT-116 (wt-p53) cells [2]): over 55%

Source: US8927207B2, “miRNAs as therapeutic targets in cancer” (Research Foundation of State University of New York, priority 2008, dated 2015)
